One data set concerns UPR target genes. The data set is described as follows: UPR target gene induction by Tm in MEF-dn-XBP cells (Northern blot). The data set is classed as cell-based. The settings on record: 10 μg/ml Tm. As for the experimental part: (A) The 5×ATF6GL3 reporter plasmid was cotransfected with either pCGNATF6α or XBP-u/s plasmids into MEF cells with or without the dominant negative XBP-1 expression plasmid. 100 ng DNA was used for each transfection except for pCDNA3.1, which was added to give 1 μg of DNA in total. Luciferase assays were performed as described in the legend to FIG. 18.(B) MEF and MEF-dn-XBP cells that stably express dominant negative XBP-1 protein were treated with 10 μg/ml Tm for the indicated time periods. Total RNAs were isolated and subjected to Northern blot analysis. The same blot was hybridized sequentially with BiP, CHOP, ERdj4, p58^ipk and ATF6α probes. Ethidium bromide staining of the gel before blotting is shown at the bottom as loading control.
293T and MEF cells derived from wild type and XBP-1^−/− embryos were cultured in DMEM supplemented with 10% fetal calf serum (Hyclone Laboratories). MEF-tet-off cells (Clontech) were maintained in the same media with the addition of 100 μg/ml G418 and 1 μg/ml doxycycline. XBP-1s inducible cells were obtained by transfecting MEF-tet-off cells with the TREhyg-XBP-1s plasmid and then selecting in the presence of 400 μg/ml hygromycin B. Several clones were tested for doxycycline-dependent XBP-1s expression, and one was selected for further experiments. MEF-dn-XBP cells were generated by transfecting MEF-tet-off cells with the TREhyg-dn-XBP plasmid. […]

The test system of another data set is BCL-1 cells. The data set is described as follows: IgM secretion by retrovirally transduced BCL-1 cells (ELISA). The data set is classed as cell-based. As for the experimental part: Mouse splenocytes or purified B cells (purified mature B cells were isolated from spleen and lymph nodes by magnetic CD43 depletion or B220 magnetic bead selection, Miltenyi Biotech, Auburn Calif.) were plated at 1×10^6 cells/ml in complete media containing RPMI 1640 supplemented with 10% fetal calf serum (FBS)(Hyclone Laboratories), glutamine (2 mM), penicillin (50 units/ml), streptomycin (50 μg/ml), Hepes (100 mM), nonessential amino acids (1×) sodium pyruvate (1 mM) and β-ME (50 μM) and stimulated with anti-CD40(1 μg/ml)(Pharmigen) or LPS (20 μg/ml)(Sigma). Cytokines (R&D Systems, Minneapolis, Minn.) were used at IL-4 (20 ng/ml), IL-2 (20 ng/ml), Il-5 (20 ng/ml), IL-6 (20 ng/ml ), IL-10 (20 ng/ml ) and IL-13 (20 ng/ml). Stimulated B cells were split to a cell concentration of 1×10^6 cells/ml with fresh media every 24 h. The BCL1 (CWS13.20-3B3 ATCC CRL 1699) cell line was cultured in RPMI media supplemented with 10% FBS, gentamicin (20 μg/ml), and β-ME (50 μM). To induce differentiation cells were plated at 2×10^5 cells/ml and treated with recombinant mouse IL-2 and IL-5 (20 ng/ml) (R&D systems).
Assays to measure immunoglobulin or cytokine levels in culture supernatants were performed as described (e.g., Hodge et al., 1996 Immunity. 4:397-405 or Science. 1996 274:1903-5).
The XBP-1 cDNAs for the unspliced (XBP-1u/s) and the spliced (XBP-1s) forms were PCR-amplified from the total RNA of untreated and tunicamycin treated NIH3T3 cells, respectively, with a primer set (5′-[…]-3′ (SEQ ID NO: 7) and 5′-[…]-3′) (SEQ ID NO: 8). XBP-1u form was generated by a PCR-based mutagenesis from XBP-unspliced/s cDNA so that the two G residues at position 532 and 535 were changed to A without changing amino acid sequences in the XBP-1u open reading frame. Numbers are based on the sequences from gene bank database (NM_013842 [gi:13775155]). These XBP-1 cDNAs were inserted into the GFP-RV retroviral vector by using blunt end ligation (Sambrook et al., 1989). EFFECTENE transfection (Quiagen) was used to introduce the DNA into the Phoenix cell line as described by manufacturer (e.g., Reimold et al., 2001 Nature. 412:300-7 or Int Immunol. 2001 13:241-8). Viral supernatants were harvested after 48 hours and frozen at −80° C. for later use. B cells were purified from mouse spleens using CD43 depletion or positive selection with B220+ magnetic beads as described by the manufacturer (MidiMacs, Miltenyi Biotech). B cell purity was generally near 95% as confirmed by flow cytometry. The B cells (10^6 cells /ml) were then activated in culture with LPS 10 μg/ml and F (ab′)2 anti-IgM (5 μg/ml Southern Biotechnology Associates Inc.) for 24 hours. […]
(In an ELISA, binding on a coated surface is turned into a signal by an enzyme label.)

This note sets out measurements from patent publication US20040170622A1, “Methods and compositions for modulating XBP-1 activity” (President and Fellows of Harvard College, priority 2002, published 2004).

B1: dn-XBP: dominant negative XBP-1 containing the N-terminal 188 aa, lacking transactivation domain, retaining leucine zipper (protein)
chain: MVVVAAAPSAATAAPKVLLLSGQPASGGRALPLMVPGPRAAGSEASGTPQARKRQRLTHLSPEEKALRRKLKNRVAAQTARDRKKARMSELEQQVVDLEEENHKLQLENQLLREKTHGLVVENQELRTRLGMDTLDPDEVPEVEAKGSGVRLVAGSAESAAGAGPVVTSPEHLPMDSDTVASSDSESD
For B1, in the data set with UPR target genes, the “induction of CHOP by Tm” value is “suppressed the induction of CHOP”; the “induction of ERdj4 and p58ipk by Tm” value was “significantly suppressed the induction of XBP-1 target genes, ERdj4 and p58^ipk”.

B2: XBP-1s: vector encoding only the spliced form of murine XBP-1, a protein of 371 aa (protein)
chain: MVVVAAAPSAATAAPKVLLLSGQPASGGRALPLMVPGPRAAGSEASGTPQARKRQRLTHLSPEEKALRRKLKNRVAAQTARDRKKARMSELEQQVVDLEEENHKLQLENQLLREKTHGLVVENQELRTRLGMDTLDPDEVPEVEAKGSGVRLVAGSAESAAGAGPVVTSPEHLPMDSDTVASSDSESDILLGILDKLDPVMFFKCPSPESASLEELPEVYPEGPSSLPASLSLSVGTSSAKLEAINELIRFDHVYTKPLVLEIPSETESQTNVVVKIEEAPLSSSEEDHPEFIVSVKKEPLEDDFIPELGISNLLSSSHCLRPPSCLLDAHSDCGYEGSPSPFSDMSSPLGTDHSWEDTFANELFPQLISV
As for B2, the “IgM secretion compared to vector alone controls” value in the data set with BCL-1 cells (GFP positive BCL-1 cells treated with IL-2 and IL-5 for 3 days) is “approximately fourfold”. Besides, in the data set on BCL-1 cells (GFP positive BCL-1 cells untreated with cytokine), the Ig secretion entry is “neither XBP-1u/s nor XBP-1s forms were able to induce Ig secretion”.
